# Results taken from patent US20190316133, “Anti-Fibrinogen Aptamers and Uses Thereof” (Laboratoire Francais du Fractionnement et des …, published 2019).
# B1: SEQ ID NO:1 aptamer (ssDNA)
# DNA: GGGTCAATGCCAGGTCTCGGACCTGGAATCCGCCACCCGCATTAGAACCAGGGTTGACATCGGCTCGCAAGCAGTC
# B2: A5-2.9 (core of SEQ ID NO:58) (ssDNA)
# DNA: CGCGTGTGGTTGGTAGGGCTAGGTGTATACGCAT
# B3: SEQ ID NO:58 aptamer (ssDNA)
# DNA: GGGTCAATGCCAGGTCTCAACTTTCGCGTGTGGTTGGTAGGGCTAGGTGTATACGCATATCGGCTCGCAAGCAGTC
# B4: SEQ ID NO:65 aptamer (ssDNA)
# DNA: GGGTCAATGCCAGGTCTCGAGCCGGTGTTGTGTTATGTTGGTAGGGAAGGTGTATAATATCGGCTCGCAAGCAGTC
# B5: A5-1.9 (core of SEQ ID NO:1) (ssDNA)
# DNA: GGGTCAATGCCAGGTCTCGGACCTGGAATCCGCCACCCGCATTAGAACCAGGGTTGAC
# B6: SEQ ID NO:60 aptamer (ssDNA)
# DNA: GGGTCAATGCCAGGTCTCTGCGTACTTATCTCGATGTGGTTGGTAGGGATAGGTGTATATCGGCTCGCAAGCAGTC
# What was measured:
# [1] = biological target: T1, fibrinogen (transgenic human, from milk of transgenic cows) (Homo sapiens, UniProt P02671-2;P02675;P02679 P02671-2:20-644,P02675:31-491,P02679:27-453); test: SPR; high affinity; pH-dependent; conditions: tags: none; 97% purity; chain copies: 2
# T1 sequence (P02671 other isoform, or with tags, fused parts or gaps, chain 1 of 3): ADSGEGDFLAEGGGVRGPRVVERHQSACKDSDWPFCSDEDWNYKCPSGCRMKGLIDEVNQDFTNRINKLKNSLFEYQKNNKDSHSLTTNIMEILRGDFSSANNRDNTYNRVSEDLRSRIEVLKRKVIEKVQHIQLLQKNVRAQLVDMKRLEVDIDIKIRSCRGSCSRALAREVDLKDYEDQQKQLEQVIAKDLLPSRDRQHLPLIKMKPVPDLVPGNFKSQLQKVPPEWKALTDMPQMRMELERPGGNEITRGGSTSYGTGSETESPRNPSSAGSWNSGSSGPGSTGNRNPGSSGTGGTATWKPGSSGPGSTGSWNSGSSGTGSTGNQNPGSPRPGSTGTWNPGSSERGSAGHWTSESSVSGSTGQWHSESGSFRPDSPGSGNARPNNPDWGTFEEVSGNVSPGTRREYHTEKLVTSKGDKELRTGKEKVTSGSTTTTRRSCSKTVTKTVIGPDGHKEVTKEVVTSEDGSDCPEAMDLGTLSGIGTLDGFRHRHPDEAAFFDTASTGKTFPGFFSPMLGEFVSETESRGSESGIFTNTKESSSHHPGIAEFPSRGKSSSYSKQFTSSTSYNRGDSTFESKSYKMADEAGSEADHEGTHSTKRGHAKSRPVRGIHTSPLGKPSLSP
# T1 sequence (P02675 31-491, chain 2 of 3): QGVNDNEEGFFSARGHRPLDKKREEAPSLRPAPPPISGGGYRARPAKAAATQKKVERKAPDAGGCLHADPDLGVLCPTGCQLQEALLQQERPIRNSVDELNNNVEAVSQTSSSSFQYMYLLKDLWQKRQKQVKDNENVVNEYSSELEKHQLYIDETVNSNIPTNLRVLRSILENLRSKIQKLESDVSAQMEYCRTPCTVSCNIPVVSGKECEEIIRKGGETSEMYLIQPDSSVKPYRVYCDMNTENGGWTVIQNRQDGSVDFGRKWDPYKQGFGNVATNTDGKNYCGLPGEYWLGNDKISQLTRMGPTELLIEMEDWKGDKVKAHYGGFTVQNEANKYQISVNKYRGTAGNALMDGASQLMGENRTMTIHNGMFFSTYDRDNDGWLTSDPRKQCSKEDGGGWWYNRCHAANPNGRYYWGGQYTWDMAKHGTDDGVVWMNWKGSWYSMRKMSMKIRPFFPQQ
# T1 sequence (P02679 27-453, chain 3 of 3): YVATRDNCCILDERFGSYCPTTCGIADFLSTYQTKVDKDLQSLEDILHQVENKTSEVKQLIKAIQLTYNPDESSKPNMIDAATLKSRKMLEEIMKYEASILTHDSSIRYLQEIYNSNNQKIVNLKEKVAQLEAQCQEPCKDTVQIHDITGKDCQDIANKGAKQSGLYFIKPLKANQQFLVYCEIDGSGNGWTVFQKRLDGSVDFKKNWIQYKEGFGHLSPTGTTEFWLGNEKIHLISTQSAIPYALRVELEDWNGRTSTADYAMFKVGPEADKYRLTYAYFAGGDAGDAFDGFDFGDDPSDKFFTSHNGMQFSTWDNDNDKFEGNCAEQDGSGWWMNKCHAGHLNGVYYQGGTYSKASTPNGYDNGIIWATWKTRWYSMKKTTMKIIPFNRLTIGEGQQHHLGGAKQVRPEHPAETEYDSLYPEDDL
# Protocol: (§1) The selected aptamer was synthetized with Biotin and a triethylene glycol spacer at the 5′ end of the oligonucleotide. A 1 μM solution of the aptamer was prepared using the SELEX selection buffer. The aptamer solution was heated to 90° C. for 5 min, incubated on ice for 5 min and equilibrated to room temperature for 10 min. The preparation was injected on a streptavidin coated sensor chip SA of Biacore T200 instrument (GE Healthcare) at a flow rate of 10 μl/min for 7 min. Then, different concentrations of the target were injected to the immobilised aptamer at 30 μl/min for 1 minute. After dissociation for 1-2 min a wash step was performed by injecting a suitable wash buffer at 30 μl/min for 1 min. For elution, a suitable elution buffer was injected at 30 μl/min for 1-2 min. Finally the sensor chip was regenerated by injection of 50 mM NaOH at 30 μl/min for 30 sec. During the course of the experiment the response signal was recorded in a sensorgram.
# The core sequences of aptamers SEQ ID NO:1 and SEQ ID NO:58 (namely the minimal sequence binding to fibrinogen) were determined. The aptamer of SEQ ID NO:66 corresponds to the core sequence of aptamer of SEQ ID NO:1. The aptamer of SEQ ID NO:67 is the core sequence of aptamer of SEQ ID NO:58. FIGS. 3A-3D show the binding profile obtained for the core sequences of aptamers of SEQ ID NO:1 and NO:58 by SPR. […]
# [2] = biological target: T1, fibrinogen (transgenic human, from milk …); test: SPR; dose-dependent 125-1000 nM at pH 6.3; not eluted by 1 M NaCl; released at pH 7.4 with 2 M MgCl2; conditions: tags: none; 97% purity; chain copies: 2; label: 5' biotin-triethylene glycol
# Protocol: (§2) Each solution of transgenic fibrinogen was injected at pH 6.3 whereby a complex was formed in a dose-dependent manner as evidenced by the increase of the signals depending on the concentration of fibrinogen. […] Fibrinogen was then released from the complex by an elution buffer at pH 7.40 and containing MgCl₂ at 2M. The solid support was then regenerated by injecting a solution of NaOH at 50 mM. X-axis: time in s. Y-axis: SPR response in arbitrary scale.
# as §1, with “Finally the sensor chip was regenerated by injection of 50 mM NaOH at 30 μl/min for 30 sec.” left out
# [3] = biological target: T1, fibrinogen (transgenic human, from milk …); test: SPR; high affinity stated; conditions: tags: none; 97% purity; chain copies: 2; label: 5' biotin-triethylene glycol
# Protocol: as §1
# [4] = biological target: T1, fibrinogen (transgenic human, from milk …); test: SPR; dose-dependent 125-1000 nM at pH 6.3; not eluted by 0.5 M NaCl; released at pH 7.4; conditions: tags: none; 97% purity; chain copies: 2; label: 5' biotin-triethylene glycol
# Protocol: as §2, with “7.40.” for “7.40 and containing MgCl₂ at 2M.”, “scale” for “scale.”
# as §1
Binder,binding result [1],binding result [3],also measured
B1,binds,–,–
B2,–,–,binding result [2]: binds
B3,binds,–,–
B4,–,binds,–
B5,–,–,binding result [4]: binds
B6,–,binds,–
